Test system: MS2 coat protein
Assay: apparent KD of MS2 coat protein; higher = weaker reporter binding
Conditions: Eterna round: R107
Method in brief: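 Each design's apparent KD comes from the median of binding-curve fits to its normalised clusters. Those clusters carried RNA switches transcribed on-chip from Illumina sequencing clusters. SNAP-549-labelled MS2 coat protein was titrated onto them in twofold steps (0.7 or 1.5 nM to 3 µM; per step 0.8–1.5 h down to 10–20 min). Conditions were 100 mM Tris-HCl pH 7.5, 80 mM KCl, 4 mM MgCl2, without or with constant ligand.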

[1] = input ligand: theophylline 20 uM
[2] = input ligand: tryptophan 2.4 mM
[3] = input ligand: theophylline 2 mM

Sequence	apparent KD of MS2 coat protein (input ligand: arginine 13.2 mM) [nM]	apparent KD of MS2 coat protein [1] [nM]	apparent KD of MS2 coat protein [2] [nM]	apparent KD of MS2 coat protein (input ligand: none) [nM]	apparent KD of MS2 coat protein [3] [nM]
UAUCUAACGAAGGAUACCAGUACAUGAGAGUACAUGAGGAUCACCCAUGUUAGAUACGGGUACCCUUGGCAGCCUCACCUACACC [theeternabot_sameState_MS2_Theo_B_11]	40.3	71.6	58	–	–
UGAUCCUAGACUGAUACCAGUCAUGAGUACAUGAGGAUCACCCAUGUCCAGGGACUCAAUGACCCUUGGCAGCAGAACCUAGUUC [Theo B SS t7]	155	414	389	–	–
GGCGGACUUAUAGAUACCAGCACAUGAGGAUCACCCAUGUUUGGUCGCACCUCAGUCCUGUGCCCUUGGCAGCUAUGAUAGAUUU [Leaatge]	16.9	33.4	16.1	–	–
AAGACGGUCGGAAGGAGCGGUACAUGAGGAUCACCCAUGUACUCCUGGGCAUCCGUAGUGUGCCAGGUAGGUCGCCGAUUGCGGG [XArg-B14]	12.8	22.9	15.3	12.8	16.6
UGUUUGGUGCGCGAGUGUUGGAUAAUUGAUACCAGUGUAGAUGUGCGCCCUUGGCAGCGAAUCCGAACAUGAGGAUCACCCAUGU [5.Z]	41.2	32.3	29.5	27.1	35.7
CCGACGAUGACCAAAGGUCAGGAGUGCGCACGAGGACCGGUACGGCCGCCACUCGAGGAGUGGGACAUGAGGAUCACCCAUGUAA [X-TryptA-ms2@65-1]	23.9	29	21.8	22.4	20.6
UAGAAACGUACGGCCGCCACUCGGAAUUGGCUCAGACCAUACGUACAUGAGGAUCACCCAUGUUAGAGGACCGGGUAUAAUCUAA [theeternabot_sameState_MS2_Trp_B_46]	18.5	30.8	–	–	31
AUCUCAUAGAGUGAUACCAGACUACAUGAGGAUCACCCAUGUUACAUUUAAAUAUCAUUUGUCCCUUGGCAGCACAUGAAGUACA [JR_Nu_ExcTheophyB_Sub018]	22.9	37.3	27.6	–	–
GGUCUCGAGGGCGAUACCAGCUUGAUCGUACUGGCCUGGUACAUGAGGAUCACCCAUGUAAGCCCUUGGCAGCGCGCUCGAGACC [#1 Exclusion - Theophylline B Attempt #6 (HarryS)]	7.85	18.5	17	11	29.3
GGAUAGGACACGGCCGCCACUAGCUAGGAUACUAGCAACAUUUCCUCACCUGAGGAUCACCCUGGUAGGACCGGGUGUCCUAUCG	134	569	394	353	1390
CGCAACCCACAUGAGGAUCACCCAUGUGAAGGAGCGGCGAAUAAGCCAGGUAGGUCGCGCAUGAAUAAAUCAUGUAGGAAGCUAA [XArg-A 8 V1]	9.8	13.2	9.79	10.8	12.7
UGCCUAGACGUGGAUUACCCGUGUACCGAAGGAGCGCCCGAAAGGGCAGGUAGGUCGCGGAGGACAUGAGGAUCACCCAUGUUUG	44.8	123	88.5	117	134
UCGUGUGUUUCGGAUACCAGUGUGGUCGAUACAUGAGGAUCACCCAUGUUAGAGGAGGUACACCCUUGGCAGCCGGCUGUUGCGG [kdtmullin]	59.9	88.5	79.5	–	–
AGCCACUCGAGUGAUCCUCACGAGUGGCUACGAGGACCGGUACGGCCGCCACUCGAAUCAACAUGAGGAUCACCCAUGUAAUAAU [Brourdmod02]	20.5	159	54.8	202	802
AAUAGACAUGAGGAUCACCCAUGUAUGGAAGGAGCGGUGAAUAAGCCAGGUAGGUCGCCAGUGUGAGGGUUAUCUAUGUAAUAAA [#19 Exclusion - Arginine A]	27.4	41.6	40.8	38.4	35.7
GCUCGUUGCAUGGAUACCAGUUGAUAGGCCGCCUCCGGAUACAUGAGGAUCACCCAUGUCAACCCUUGGCAGCCACCCAAUAGGG [theeternabot_exclusion_MS2_Theo_B_27]	10.4	13.7	10.6	–	–
GGAUAGGACACGGCCGCCACUGCCUAGGAUACUAGCAACAUUUGGGUACAUGAGGAUCACCCAUGUAGGACCGGGUGUCCUAUCG	38.5	70.9	–	–	70.3
UGUAUGUGAUCUGAUACCAGCGUUGAUAACCUGAGGAUCACCCUGGUAAAGGCGAAAGCCCGCCCUUGGCAGCAGAUCGCAUACU	182	280	787	611	24.9
AACAUGAGGAUCACCCAUGUGUCCUCGAAACGAGGACCGGUACGGCCGCCACUCGAAUAAGGUGUUGACGAAAAGUCAGCACCAA [Mat - Exclusion - Trytophan A - D17]	111	314	–	–	338
AGUACAUGAGGAUCACCCAUGUAUCGGUACCGAGGACCGGUACGGCCGCCACUCGCAGGACAUGAGGAUCACCCAUGUGCAGCCG [SSTA DOUBLE!!! :-D #10]	19.2	40.9	35	36.8	43.8

Sequence	apparent KD of MS2 coat protein (input ligand: arginine 13.2 mM) [nM]	apparent KD of MS2 coat protein [1] [nM]	apparent KD of MS2 coat protein [2] [nM]	apparent KD of MS2 coat protein (input ligand: none) [nM]	apparent KD of MS2 coat protein [3] [nM]
GGCUAACAUGAGGAUCACCCAUGUAUUGAUACCAGUAUUUGAAAAUACCCUUGGCAGCAAAUGAAGAGCGUAGCAGGGUCGAUUA [theeternabot_sameState_MS2_Theo_A_7]	10	17	12.6	–	–
UGUAUGGACUGAAGGAGCGGAAGAUAGCUUGAGGAUCACCCAAGUAAUAAGGCGAAAGCCUUCCAGGUAGGUCGCAGUCCAUACU	31.4	43.1	38.6	35.2	38
AAUAAACAUGAGGAUCACCCAUGUAGGGUGCGAGGACCGGUACGGCCGCCACUCGGGUGAAAACAUGAGGAUCACCCAUGUAAAA [Mat - Exclusion - Trytophan A - D23]	61.1	185	–	–	220
UUUCAGUGGACGGCCGCCACUGAAGUCGAUACAAUCAUGUAGAACAUGAGGAUCACCCAUGUAGUCAGGACCGGGUCCAAUGACU [Tryp B SS t3]	15.9	21.3	20.5	22.9	22.8
GGAUAGGACACGGCCGCCACUACCUAGGAUACUAGCAACAUUUGGGUACACGAGGAUCACCCGUGUAGGACCGGGUGUCCUAUCG	32.6	18.1	19.2	10.7	13.6
UUGACAUGAGGAUCACCCAUGUUAGCUGAAGGAGCGAGGUAGUACUCAGGUAGGUCGCAGAGAGCAGAGUUAGUUGUUCUCAUGU [X-ArgiA-ms2@4]	21.5	28.5	18.6	19.1	23.3
GGGCCUAUAAGCAGGCCCACAGCGGGUGAUACCAGCAAUAAAACUUGCCCUUGGCAGCACACAGCUACAUGAGGAUCACCCAUGU [Beator]	41.1	72.9	62.4	45.1	70.6
GAUUGGUAUAGAAGGAGCGUCGAAAAUGGGUAAACAUGAGGAUCACCCAUGUAAAGGGAACGACAGGUAGGUCGCUAUAUUAAUC [AstromonsSSArgB#30]	146	256	200	174	272
UUCUGGACCCGUGAUACCAGAGACAUGAGGAUCACCCAUGUACAUGAGGAUCACCCAUGUCUCCCUUGGCAGCACUGCAGGGAGC [Exclusion Theophylline B GF 14]	45.4	169	133	–	–
CUCAUCCACGCGGCCGCCACUAUAUUGUGGUGUGGGUGUGACGUAUUACAUGAGGAUCACCCAUGUAGGACCGGGCGUGGAUGAG [Stork]	188	525	534	408	1100
UUAUUUAUAAUGGAUACCAGUCGUAUGGCCCGGCAUCCUGACAUGAGGAUCACCCAUGUCGACCCUUGGCAGCUGUUAUGGGUUU [XTheo B #21]	14.9	17	13.8	–	–
UUCUACAUGAGGAUCACCCAUGUGGGUGAUACCAGCACUUUUUGGUGCCCUUGGCAGCACAUGAGAAUGCCGUAAAAUCGGCGAU [Ceanteis]	74.7	577	503	–	–
GCUACAUGAGGAUCACCCAUGUCAGCUACACGAGGACCGGUACGGCCGCCACUCGGUAGCGCUCAUCCUCGUGUGUAAGUCAAGU [Xedier]	48.2	116	23.5	81.6	97.5
UGGCAAGAGGGAAGGAGCGUCAGCUGAGUCACAUGAGGAUCACCCAUGUCGCACAUAGUGUGACAGGUAGGUCGCCCUCUACCCU [Rearian]	67.9	209	148	222	217
CUUGGCUGUGCGGCCGCCACUGACUCAUCCUGCAUUACAUGAGGAUCACCCAUGUUGCGGCCUCCCAGGACCGGGCAUAGCCUGC [Veered]	102	397	–	–	673
UCGGGUUUGCGAAGGAGCGGGUAUGUUUUCUAGUGGAUCCUAACAUGAGGAUCACCCAUGUCCCAGGUAGGUCGCGCGGGUUUGG [12.W]	183	291	100	102	168
ACAUGAGGAUCACCCAUGUGGCGUCUUGAUACCAGACGAGAAGUAGUCCCUUGGCAGCAAAUACAUGAGGAUCACCCAUGUAGGA [cccmullin]	16.6	25.5	24.3	–	–
CGGUACAUGAGGAUCACCCAUGUGUCGGAUACCAGAGAGCCGGCUCUCCCUUGGCAGCUGGUGCGACAUGAGGAUCACCCAUGUG [Exclusion Theophylline A GF19]	29.4	58.5	53.3	61.6	67.4
ACGUCAUGGAGAACGUGACGACUUGUCGAUACCAGUGUUUGAUAGCGCCCUUGGCAGCGAACAUGAGGAUCACCCAUGUCAAGGG [#11 SameState-TheophyllineA]	51.7	84.6	66.4	72.8	88.9
AGACAUGAGGAUCACCCAUGUAGUACGGAUACCAGAUCCAGAUGCGUCCCUUGGCAGCUGUAGUACAGCGUUACAUCGCUCAUAG [Exclusion - Theophylline A (Freestyle 25)]	21	44	36.4	–	–

Reference: the supplement of paper PMC9170038
